Six molecules from PMC11380581 (Cell, 2024) can be followed below.

Data set [1] addresses NRC3-L21E-3xFlag (active NRC3). The experiment in a line: negative-stain EM.
For data set [2], the target named is Flag-tagged NRC4 co-expressed with HA-tagged Bs2 and AvrBs2 (Figure S6F) (N. benthamiana). The experiment in a line: native gel or EMSA.
The data set “negative-stain EM” concerns the molecule itself. The data set is described as follows: negative-stain EM.
Data set [3] deals with the molecule itself. The experiment in a line: cryo-EM structure.
Data set [4] deals with the molecule itself. The data set is described as follows: cryo-EM structure. The source holds these as a separate data set.
Data set [5] concerns the molecule itself. The experiment in a line: native gel or EMSA + other: negative-stain EM.

“NRC3-L21E-3xFlag (active NRC3) (natural protein)” gave a stoichiometry N in data set [1] of 6. In turn, “Flag-tagged NRC4 co-expressed with HA-tagged Bs2 and AvrBs2 (Figure S6F) (from UniProt A0A5J6DCT7 1-881) (natural protein)” registered a stoichiometry N in data set [2] of 6.

B1: NRC0-EEE-3XFlag (active NRC0) (natural protein)
chain: MADAVVEFELLNEKQLELYHVDLLSGVKDEVESLHRELSLMKAFLKDSREKRSEYEYVRELVSQITIVAYEAEDIIDTFVTNAAMQKARSTVRRAFHVFDHSSKLRNVAKEIESIKVKVKEIYDKKMFGIQSLHGGESSHRSPPQKRVPMVEEENVVGFDDEARKISSRLTNGSEELEIISIVGMGGLGKTTLAKKVYTDSSIEFHFYNRAWIYVSQLYSRKEVFLGILDSLSLITDEMYKMNDEKLAGELFSHLRSKRYLVVIDDVWTMEAWDDLQMAFPKTATGSRILLTTRNTEVALHANPEGLPHHLRFLTHEESWELLSKKVFRKGICPLELEDIGLQIAKKCYGLPLAIVVVSGLLLKKEKTRDWWKKIANDVSSYVARDPKQCMDVLALSYKHLPDHLKVCFIYFGVFPEDFEIPVWKLLRLWTSEGFVQKMGQECLEDTAEEYLEDLVDRNLVLVAKKRASGRIKTCRIHDMLRDLSVKMGSEEKFLEVFKESAQNHSLSPISKYHRRLCVHSHFLDFITSRPFGPNVRSFLCFASEEMELLREHTSFLHEAFRLVRVLDLKYINFPRFPTEIVQLVHLRYIALSGNFRVLPASISKLWNLETLIVGTKSRELDIQVDIWKMSQFKHLYTSGLSCLRGPPAKTRKDNADPFVRRNIQTISTVLPDCCKENILARTPGLRKLGIRGKLATLVATNGDSSLFDNLAKLDNLETLKLLNDTFPLPPSQCQIPGLPQSYKFPPNLKKLTLSDTFLDWSHISTLGMLPNLEVLKLKDYAFKGTQWEPLDGGFRLLRVLHIGRTNLEHWNASGHHFPRLQQVFLKHCSSLNEIPFGLVEVSSLQNIELFWPTPAAAASARIIQQEKQEGDIKDNVFKLVIYPPDI
On to B1, for which the “stoichiometry N” value in the data set “negative-stain EM” is 6.

B2: NRC4 L9E D478V (NLR Required for Cell Death 4 with the L9E and D478V mutations) (natural protein, N. benthamiana)
chain: MADAVVNFEVENLLQLLTDNVKLIGSAKGELENLLKEVQHLKGFLDDAAKLPSDSEQWKVLVEEIQKTVHTAEDAVDKFVVQAKLHKEKNKMARILDVGHLATVRNLAAEVKGIHDQVKELRLNNQALQARPTLELPKKGSSETTQQGPALEDDEVVGFDEEANKVINRLVKESKDLDIIPVVGMPGLGKTTLARKIYKDPKLSYEFFGVHWVYVGQSYKIKDVFLNILKFFTRRTEDYQHEDVDALAKVIAGFINKGGRCLICLDDVWETKVIDYVKTIFPENEKGHRVMMTTRNKVLATYANSDPHDLKFLTPKESFELLVKRVFGKKPCPKDLVGHGESIAGKCGGVPLAVVVIAGALRGRPNTSDWIRVERNVVQHLYTNSEESCLKFVEMSYDHLPQEVQTCFLYCGVFPRGFDIPSWKVIRLWIAEGLIKPQESYTLEEIAEFYLNDLVNRNLVILQQKRSDGQIKTCRLHVMLHQFCKKEASNKWLFQEVSLTPDQAIPIEDPNKSRRLCIQPSNLKDFLSKKPSAEHVRSFYCFSSKEKQIRGLTPNDIKLIHKAFPLVRVLDVESLKFLFSKDFNQLFHLRYIAISGDFNAIPLTFGKFWNLQTLILNTSTSESTLDVKADIWNMLQLRHLHTNIPAKLQPPTATTSGKASCLQTLCMVAPESCEKEVLAKACHLKKLSIRGQMAAFLGAYKGGINNLVELKCLEQLKLLNDVLYMNKAPHLPQTFSQLVRTVKKLTLTNTRFAWSEADKLGQLESLEILKFKENAFAGDSWKPKMGFSALRVLWIERAEFETWEASEINFPVLRNLVLMSCDKLETVPFELANLSDLYEMRLENTSKAVKSAKAILESKTDKNIKFNLTIFPPEAGSKATQ
For B2, the “stoichiometry N” value in “cryo-EM structure [3]” came to 12; in “cryo-EM structure [4]”, 6.

B3: wild type NRC4, Flag-tagged (natural protein, N. benthamiana)
chain: MADAVVNFLVENLLQLLTDNVKLIGSAKGELENLLKEVQHLKGFLDDAAKLPSDSEQWKVLVEEIQKTVHTAEDAVDKFVVQAKLHKEKNKMARILDVGHLATVRNLAAEVKGIHDQVKELRLNNQALQARPTLELPKKGSSETTQQGPALEDDEVVGFDEEANKVINRLVKESKDLDIIPVVGMPGLGKTTLARKIYKDPKLSYEFFGVHWVYVGQSYKIKDVFLNILKFFTRRTEDYQHEDVDALAKVIAGFINKGGRCLICLDDVWETKVIDYVKTIFPENEKGHRVMMTTRNKVLATYANSDPHDLKFLTPKESFELLVKRVFGKKPCPKDLVGHGESIAGKCGGVPLAVVVIAGALRGRPNTSDWIRVERNVVQHLYTNSEESCLKFVEMSYDHLPQEVQTCFLYCGVFPRGFDIPSWKVIRLWIAEGLIKPQESYTLEEIAEFYLNDLVNRNLVILQQKRSDGQIKTCRLHDMLHQFCKKEASNKWLFQEVSLTPDQAIPIEDPNKSRRLCIQPSNLKDFLSKKPSAEHVRSFYCFSSKEKQIRGLTPNDIKLIHKAFPLVRVLDVESLKFLFSKDFNQLFHLRYIAISGDFNAIPLTFGKFWNLQTLILNTSTSESTLDVKADIWNMLQLRHLHTNIPAKLQPPTATTSGKASCLQTLCMVAPESCEKEVLAKACHLKKLSIRGQMAAFLGAYKGGINNLVELKCLEQLKLLNDVLYMNKAPHLPQTFSQLVRTVKKLTLTNTRFAWSEADKLGQLESLEILKFKENAFAGDSWKPKMGFSALRVLWIERAEFETWEASEINFPVLRNLVLMSCDKLETVPFELANLSDLYEMRLENTSKAVKSAKAILESKTDKNIKFNLTIFPPEAGSKATQ
Regarding B3, the “stoichiometry N” value in data set [5] worked out at 2.

B4: NRC4 L9E (natural protein, N. benthamiana)
chain: MADAVVNFEVENLLQLLTDNVKLIGSAKGELENLLKEVQHLKGFLDDAAKLPSDSEQWKVLVEEIQKTVHTAEDAVDKFVVQAKLHKEKNKMARILDVGHLATVRNLAAEVKGIHDQVKELRLNNQALQARPTLELPKKGSSETTQQGPALEDDEVVGFDEEANKVINRLVKESKDLDIIPVVGMPGLGKTTLARKIYKDPKLSYEFFGVHWVYVGQSYKIKDVFLNILKFFTRRTEDYQHEDVDALAKVIAGFINKGGRCLICLDDVWETKVIDYVKTIFPENEKGHRVMMTTRNKVLATYANSDPHDLKFLTPKESFELLVKRVFGKKPCPKDLVGHGESIAGKCGGVPLAVVVIAGALRGRPNTSDWIRVERNVVQHLYTNSEESCLKFVEMSYDHLPQEVQTCFLYCGVFPRGFDIPSWKVIRLWIAEGLIKPQESYTLEEIAEFYLNDLVNRNLVILQQKRSDGQIKTCRLHDMLHQFCKKEASNKWLFQEVSLTPDQAIPIEDPNKSRRLCIQPSNLKDFLSKKPSAEHVRSFYCFSSKEKQIRGLTPNDIKLIHKAFPLVRVLDVESLKFLFSKDFNQLFHLRYIAISGDFNAIPLTFGKFWNLQTLILNTSTSESTLDVKADIWNMLQLRHLHTNIPAKLQPPTATTSGKASCLQTLCMVAPESCEKEVLAKACHLKKLSIRGQMAAFLGAYKGGINNLVELKCLEQLKLLNDVLYMNKAPHLPQTFSQLVRTVKKLTLTNTRFAWSEADKLGQLESLEILKFKENAFAGDSWKPKMGFSALRVLWIERAEFETWEASEINFPVLRNLVLMSCDKLETVPFELANLSDLYEMRLENTSKAVKSAKAILESKTDKNIKFNLTIFPPEAGSKATQ
Consider B4, for which the “stoichiometry N” value in the data set “negative-stain EM” stood at 6.
